According to the RNAGym collection of RNA variant scans (doi:10.7554/elife.80360):

B1: Hairpin Ribozyme (parent)
chain: GUCCUCUUUCACGUGCGCGUGAAAGAGAGAAGUGAACCAGAGAAACACACGUUGUGGUAUAUUACCUGGUA

Variants of: B1
Test: self-cleavage, relative activity (ratio to wild type); higher = more cleavage; co-transcriptional

Row | Variant | self-cleavage
1 | GUCCUCAUUCACGUGCGCGUGAAAGAGAGAAGUGAACCAGAGAAACACACGUUGUGGUAUAAUACCUGGUA [U7A U62A] | 0.177
2 | GUCCUCCUUCACGUGCGCGUGAAAGAGAGAAGUGAACCAGAGAAACACACGUUGUGGUAUAUUACCUGGUG [U7C A71G] | 1.13
3 | GUCCUCCUUCACGUGCGCGUGAAAGAGAGAAGUGAACCAGAGAAACACACGUUGUGGUAUAUUACCUGGUC [U7C A71C] | 1.35
4 | GUCCUCAUUCACGUGCGCGUGAAAGAGAGAAGUGAACCAGAGAAACACACGCUGUGGUAUAUUACCUGGUA [U7A U52C] | 0.953
5 | GUCCUCCUUCUCGUGCGCGUGAAAGAGAGAAGUGAACCAGAGAAACACACGUUGUGGUAUAUUACCUGGUA [U7C A11U] | 0.294
6 | GUCCUCCUUCGCGUGCGCGUGAAAGAGAGAAGUGAACCAGAGAAACACACGUUGUGGUAUAUUACCUGGUA [U7C A11G] | 0.684
7 | GUCCUCCUUCACGUGCGCGUGAAAGAGAGAAGUGAACCAGAGAAACACACGUUGUGGUAUAUUCCCUGGUA [U7C A64C] | 0.26
8 | GUCCUCCUUCACGUGCGCGUGAAAGAGAGAAGUGAACCAGAGAAACACACGUUGUGGUAUAUUGCCUGGUA [U7C A64G] | 0.458
9 | GUCCUCCUUCACGUGCGCGUGAAAGAGAGAAGUGAAGCAGAGAAACACACGUUGUGGUAUAUUACCUGGUA [U7C C37G] | 0.273
10 | GUCCUCCUUCACGUGCGCGUGAAAGAGAGAAGUGAAACAGAGAAACACACGUUGUGGUAUAUUACCUGGUA [U7C C37A] | 0.37
11 | GUCCUCCUUCACGUGCGCGUGAAAGAGAGAAGUGAACCAGAGCAACACACGUUGUGGUAUAUUACCUGGUA [U7C A43C] | 0.0702
12 | GUCCUCCUUCACGUGCGCGUGAAAGUGAGAAGUGAACCAGAGAAACACACGUUGUGGUAUAUUACCUGGUA [U7C A26U] | 0.176
13 | GUCCUCCUUCACGUGCGCGUGAAAGAGGGAAGUGAACCAGAGAAACACACGUUGUGGUAUAUUACCUGGUA [U7C A28G] | 1.02
14 | GUCCUCCUUCACGUGAGCGUGAAAGAGAGAAGUGAACCAGAGAAACACACGUUGUGGUAUAUUACCUGGUA [U7C C16A] | 0.913
15 | GUCCUCCUUCACGUGGGCGUGAAAGAGAGAAGUGAACCAGAGAAACACACGUUGUGGUAUAUUACCUGGUA [U7C C16G] | 0.456
16 | GUCCUCAUUCACGUGCGCGUGAAAGAGAGAAGUGAACCAGAGAAACACACGUUGUGGUAUAUUACCAGGUA [U7A U67A] | 0.223
17 | GUCCUCAUUCACGUGCGCGUGAAAGAGAGAAGUGAACCAGAGAAACACACGUUGUGGUAUAUUACCGGGUA [U7A U67G] | 0.282
18 | GUCCUCAUUCACGUGCGCGUGAAAGAGAGAAGUGAACCAGAGAAACACACGUUGUGGUAUAUCACCUGGUA [U7A U63C] | 0.102
19 | GUCCUCAUUCACGUGCGCGUGAAAGAGAGAAGUGAACCAGAGAAACACACGUUGUGGUAUAUGACCUGGUA [U7A U63G] | 0.199

Row | Variant | self-cleavage
20 | GUCCUCAUUCACGUGCGCGGGAAAGAGAGAAGUGAACCAGAGAAACACACGUUGUGGUAUAUUACCUGGUA [U7A U20G] | 0.705
21 | GUCCUCAUUCACGUGCGCGUGAAAGAGAGAAGUGAACCAGAGAAACACACGUUGUGGAAUAUUACCUGGUA [U7A U58A] | 0.58
22 | GUCCUCCUUCACGUGCGCGUGAAAGAGAGAAGUGAACCAGAGAACCACACGUUGUGGUAUAUUACCUGGUA [U7C A45C] | 0.136
23 | GUCCUCCUUCACGUGCGCGUGAAAGAGAGAAGUGAACCAGAGAAGCACACGUUGUGGUAUAUUACCUGGUA [U7C A45G] | 0.104
24 | GUCCUCCUUCACGUGCGCGUGAAAGAGAGAAGUGAACCAGAGAUACACACGUUGUGGUAUAUUACCUGGUA [U7C A44U] | 0.106
25 | GUCCUCCUUCACGUGCGCGUGAAAGAGAGAAGUGAACCAGUGAAACACACGUUGUGGUAUAUUACCUGGUA [U7C A41U] | 0.98
26 | GUCCUCAUUCACGUGCGCGUGAAAGAGAGAAGUGAACCAGAGAAACACACGUUGUGGUAUAUUACCUGGGA [U7A U70G] | 0.921
27 | GUCCUCAUUCACGUGCGCGUGAAAGAGAGAAGUGAACCAGAGAAACACACGUUGUGGUAUAUUACCUGGAA [U7A U70A] | 0.766
28 | GUCCUCCUUCACGUGCGCGUGCAAGAGAGAAGUGAACCAGAGAAACACACGUUGUGGUAUAUUACCUGGUA [U7C A22C] | 0.178
29 | GUCCUCCUUCACGUGCGCGUGGAAGAGAGAAGUGAACCAGAGAAACACACGUUGUGGUAUAUUACCUGGUA [U7C A22G] | 0.565
30 | GUCCUCCUUCACGUGCGCGUGAAAGAGAGAAGUGAACCAGAGAAACACACGUUGUGGUAUAUUACCUGGUA [U7C] | 0.894
31 | GUCCUCAUUCACGUGCGCGUGAAAGAGAGAAGGGAACCAGAGAAACACACGUUGUGGUAUAUUACCUGGUA [U7A U33G] | 0.0989
32 | GUCCUCCUUCACGUGCGCGUGAAAGAGAGAAGUGAACCAGAGAAACACACGUUGUGGUCUAUUACCUGGUA [U7C A59C] | 0.251
33 | GUCCUCCUUCACGUGCGCGUGAAAGAGAGAAGUGAACCAGAGAAACACACGUUGUGGUAUCUUACCUGGUA [U7C A61C] | 0.11
34 | GUCCUCCUUCACGUGCGCGUGAAAGAGAGAAGUGAACCAGAGAAACACCCGUUGUGGUAUAUUACCUGGUA [U7C A49C] | 0.0316
35 | GUCCUCCUUAACGUGCGCGUGAAAGAGAGAAGUGAACCAGAGAAACACACGUUGUGGUAUAUUACCUGGUA [U7C C10A] | 0.815
36 | GUCCUCCUUUACGUGCGCGUGAAAGAGAGAAGUGAACCAGAGAAACACACGUUGUGGUAUAUUACCUGGUA [U7C C10U] | 0.9
37 | GUCCUCAUUCACGGGCGCGUGAAAGAGAGAAGUGAACCAGAGAAACACACGUUGUGGUAUAUUACCUGGUA [U7A U14G] | 0.881
38 | GUCCUCCUUCAUGUGCGCGUGAAAGAGAGAAGUGAACCAGAGAAACACACGUUGUGGUAUAUUACCUGGUA [U7C C12U] | 0.89
